The nature of the data set: melting temperature; melt of duplexes. As to conditions: sodium 0.0675 M; strand 1 µM.
Broadly, the Tm is the temperature at the midpoint of the melting transition. Turning to “CGACGTGCTAGATGTGCTG+CAGCACATTAGGCACGTCG ((((((((...((((((((+))))))))...))))))))”, the Tm came to 52.2 °C.

With “CGACGTGCCGTATGTGCTG+CAGCACATCAAGCACGTCG ((((((((...((((((((+))))))))...))))))))”, the Tm is 49.3 °C.

Regarding “CGACGTGCACAATGTGCTG+CAGCACATGGGGCACGTCG ((((((((.(.((((((((+)))))))).).))))))))”, the melting temperature (Tm) was found to be 55.2 °C.

For the substance “CGACGTGCCGTATGTGCTG+CAGCACATTTAGCACGTCG ((((((((...((((((((+))))))))...))))))))”, the melting temperature (Tm) stood at 48.4 °C.

As for “CGACGTGCGATATGTGCTG+CAGCACATTAGGCACGTCG ((((((((...((((((((+))))))))...))))))))”, the Tm turned out to be 50.8 °C.

On to “CGACGTGCTACATGTGCTG+CAGCACATGAGGCACGTCG ((((((((..(((((((((+)))))))))..))))))))”, for which the midpoint of thermal melting (Tm) was found to be 55.8 °C.

As for “CGACGTGCTCTATGTGCTG+CAGCACATCGTGCACGTCG ((((((((.(.((((((((+)))))))).).))))))))”, the Tm turned out to be 45.2 °C.

Turning to “CGACGTGCTACATGTGCTG+CAGCACATCAAGCACGTCG (((((((((..((((((((+))))))))..)))))))))”, the melting temperature (Tm) was 50.6 °C.

As for “CGACGTGCACTATGTGCTG+CAGCACATTCGGCACGTCG ((((((((...((((((((+))))))))...))))))))”, the Tm was found to be 43.7 °C.

For “CGACGTGCTCTATGTGCTG+CAGCACATCTCGCACGTCG ((((((((...((((((((+))))))))...))))))))”, the midpoint of thermal melting (Tm) is 47.1 °C.

Turning to “CGACGTGCTGGATGTGCTG+CAGCACATGATGCACGTCG ((((((((...((((((((+))))))))...))))))))”, the Tm is 51.7 °C.

As to “CGACGTGCCCAATGTGCTG+CAGCACATAATGCACGTCG ((((((((...((((((((+))))))))...))))))))”, the midpoint of thermal melting (Tm) is 47.6 °C.

With “CGACGTGCAAAATGTGCTG+CAGCACATGAGGCACGTCG ((((((((...((((((((+))))))))...))))))))”, the midpoint of thermal melting (Tm) amounted to 52.5 °C.

Consider “CGACGTGCCCTATGTGCTG+CAGCACATCCGGCACGTCG (((((((((..((((((((+))))))))..)))))))))”, for which the Tm was 52.2 °C.

In the case of “CGACGTGCTTCATGTGCTG+CAGCACATCAGGCACGTCG ((((((((.(.((((((((+)))))))).).))))))))”, the melting temperature (Tm) was 49.1 °C.

“CGACGTGCATGATGTGCTG+CAGCACATGTCGCACGTCG ((((((((...((((((((+))))))))...))))))))”: the Tm amounted to 48.8 °C.

On to “CGACGTGCAACATGTGCTG+CAGCACATTGCGCACGTCG ((((((((...((((((((+))))))))...))))))))”, for which the Tm worked out at 48.8 °C.

Take “CGACGTGCGCAATGTGCTG+CAGCACATTGCGCACGTCG (((((((((((((((((((+)))))))))))))))))))”: the Tm amounted to 67.1 °C.

With “CGACGTGCATAATGTGCTG+CAGCACATCTCGCACGTCG ((((((((...((((((((+))))))))...))))))))”, the midpoint of thermal melting (Tm) amounted to 47.6 °C.

For “CGACGTGCGTGATGTGCTG+CAGCACATAGGGCACGTCG ((((((((...((((((((+))))))))...))))))))”, the Tm came out at 50.6 °C.

For “CGACGTGCACAATGTGCTG+CAGCACATACCGCACGTCG ((((((((...((((((((+))))))))...))))))))”, the Tm came to 44.6 °C.

In the case of “CGACGTGCTTCATGTGCTG+CAGCACATTATGCACGTCG ((((((((.(.((((((((+)))))))).).))))))))”, the Tm is 50.1 °C.

Turning to “CGACGTGCTTAATGTGCTG+CAGCACATAATGCACGTCG ((((((((.(.((((((((+)))))))).).))))))))”, the midpoint of thermal melting (Tm) is 51.5 °C.

Turning to “CGACGTGCGCAATGTGCTG+CAGCACATCCTGCACGTCG ((((((((...((((((((+))))))))...))))))))”, the Tm is 49.2 °C.

As to “CGACGTGCAACATGTGCTG+CAGCACATTGGGCACGTCG ((((((((...((((((((+))))))))...))))))))”, the Tm is 50.1 °C.

Turning to “CGACGTGCGTAATGTGCTG+CAGCACATTGGGCACGTCG ((((((((..(((((((((+)))))))))..))))))))”, the Tm stood at 55 °C.

On to “CGACGTGCTTGATGTGCTG+CAGCACATAATGCACGTCG ((((((((.(.((((((((+)))))))).).))))))))”, for which the Tm came to 52.1 °C.

On to “CGACGTGCTACATGTGCTG+CAGCACATGGCGCACGTCG ((((((((..(((((((((+)))))))))..))))))))”, for which the Tm is 54.7 °C.

With “CGACGTGCTCAATGTGCTG+CAGCACATGCGGCACGTCG ((((((((...((((((((+))))))))...))))))))”, the melting temperature (Tm) was 49.4 °C.

Consider “CGACGTGCAGTATGTGCTG+CAGCACATTCCGCACGTCG ((((((((.(.((((((((+)))))))).).))))))))”, for which the Tm amounted to 50.1 °C.

With “CGACGTGCCCCATGTGCTG+CAGCACATCCCGCACGTCG ((((((((...((((((((+))))))))...))))))))”, the melting temperature (Tm) is 46.2 °C.

With “CGACGTGCCTCATGTGCTG+CAGCACATCTGGCACGTCG (((((((((..((((((((+))))))))..)))))))))”, the melting temperature (Tm) was found to be 52.7 °C.

Turning to “CGACGTGCGGGATGTGCTG+CAGCACATGCAGCACGTCG ((((((((.(.((((((((+)))))))).).))))))))”, the melting temperature (Tm) was 57.2 °C.

Take “CGACGTGCATGATGTGCTG+CAGCACATGGAGCACGTCG ((((((((...((((((((+))))))))...))))))))”: the melting temperature (Tm) is 50.1 °C.

As for “CGACGTGCGCTATGTGCTG+CAGCACATACGGCACGTCG ((((((((..(((((((((+)))))))))..))))))))”, the melting temperature (Tm) was 50.6 °C.

“CGACGTGCGGCATGTGCTG+CAGCACATGTTGCACGTCG ((((((((..(((((((((+)))))))))..))))))))”: the Tm is 57.6 °C.

In the case of “CGACGTGCTATATGTGCTG+CAGCACATTGAGCACGTCG (((((((((..((((((((+))))))))..)))))))))”, the Tm turned out to be 52.9 °C.

Take “CGACGTGCGAAATGTGCTG+CAGCACATGCGGCACGTCG ((((((((...((((((((+))))))))...))))))))”: the Tm stood at 51.7 °C.

As for “CGACGTGCACCATGTGCTG+CAGCACATCCAGCACGTCG ((((((((...((((((((+))))))))...))))))))”, the Tm worked out at 42.2 °C.

On to “CGACGTGCAATATGTGCTG+CAGCACATAGAGCACGTCG ((((((((..(((((((((+)))))))))..))))))))”, for which the midpoint of thermal melting (Tm) amounted to 52.7 °C.

For “CGACGTGCACAATGTGCTG+CAGCACATGTGGCACGTCG ((((((((...((((((((+))))))))...))))))))”, the midpoint of thermal melting (Tm) was determined as 51.2 °C.

Regarding “CGACGTGCAAGATGTGCTG+CAGCACATGGAGCACGTCG ((((((((...((((((((+))))))))...))))))))”, the Tm amounted to 51.6 °C.

With “CGACGTGCTCTATGTGCTG+CAGCACATCCTGCACGTCG ((((((((...((((((((+))))))))...))))))))”, the Tm amounted to 47.8 °C.

Take “CGACGTGCGCGATGTGCTG+CAGCACATGCTGCACGTCG ((((((((...((((((((+))))))))...))))))))”: the Tm amounted to 52.9 °C.

Regarding “CGACGTGCATGATGTGCTG+CAGCACATAGGGCACGTCG ((((((((...((((((((+))))))))...))))))))”, the midpoint of thermal melting (Tm) was 50.1 °C.

Regarding “CGACGTGCATCATGTGCTG+CAGCACATGTAGCACGTCG ((((((((..(((((((((+)))))))))..))))))))”, the midpoint of thermal melting (Tm) amounted to 55.3 °C.

On to “CGACGTGCCCCATGTGCTG+CAGCACATGAGGCACGTCG (((((((((.(((((((((+))))))))).)))))))))”, for which the melting temperature (Tm) came out at 59.6 °C.

As to “CGACGTGCGACATGTGCTG+CAGCACATGCGGCACGTCG ((((((((..(((((((((+)))))))))..))))))))”, the melting temperature (Tm) is 54.4 °C.

With “CGACGTGCTCCATGTGCTG+CAGCACATGTCGCACGTCG ((((((((..(((((((((+)))))))))..))))))))”, the Tm stood at 52.1 °C.

As for “CGACGTGCCGTATGTGCTG+CAGCACATCACGCACGTCG ((((((((...((((((((+))))))))...))))))))”, the Tm worked out at 51.2 °C.

For “CGACGTGCCGAATGTGCTG+CAGCACATTTGGCACGTCG (((((((((.(((((((((+))))))))).)))))))))”, the midpoint of thermal melting (Tm) came out at 60.6 °C.

As to “CGACGTGCTGGATGTGCTG+CAGCACATTTGGCACGTCG ((((((((...((((((((+))))))))...))))))))”, the Tm is 51.8 °C.

As for “CGACGTGCACAATGTGCTG+CAGCACATTTAGCACGTCG ((((((((..(((((((((+)))))))))..))))))))”, the Tm came out at 48.3 °C.

“CGACGTGCGTGATGTGCTG+CAGCACATTACGCACGTCG ((((((((((.((((((((+)))))))).))))))))))”: the Tm worked out at 60.4 °C.

For “CGACGTGCGTGATGTGCTG+CAGCACATTTGGCACGTCG ((((((((...((((((((+))))))))...))))))))”, the midpoint of thermal melting (Tm) stood at 50.4 °C.

“CGACGTGCAGAATGTGCTG+CAGCACATTGGGCACGTCG ((((((((..(((((((((+)))))))))..))))))))”: the Tm came to 53.8 °C.

For “CGACGTGCACGATGTGCTG+CAGCACATTGCGCACGTCG ((((((((.(.((((((((+)))))))).).))))))))”, the Tm is 52.1 °C.

For the substance “CGACGTGCTTCATGTGCTG+CAGCACATTAGGCACGTCG ((((((((.(.((((((((+)))))))).).))))))))”, the Tm was 50 °C.

With “CGACGTGCCGGATGTGCTG+CAGCACATTCAGCACGTCG ((((((((.(.((((((((+)))))))).).))))))))”, the midpoint of thermal melting (Tm) stood at 52.4 °C.

In the case of “CGACGTGCTGGATGTGCTG+CAGCACATGAGGCACGTCG ((((((((...((((((((+))))))))...))))))))”, the Tm was 54 °C.

For the substance “CGACGTGCGCGATGTGCTG+CAGCACATGGCGCACGTCG ((((((((((.((((((((+)))))))).))))))))))”, the melting temperature (Tm) came to 62 °C.

On to “CGACGTGCGATATGTGCTG+CAGCACATCAAGCACGTCG ((((((((...((((((((+))))))))...))))))))”, for which the Tm turned out to be 52.1 °C.

Turning to “CGACGTGCCCCATGTGCTG+CAGCACATGAAGCACGTCG ((((((((..(((((((((+)))))))))..))))))))”, the midpoint of thermal melting (Tm) came out at 52 °C.

Regarding “CGACGTGCGGGATGTGCTG+CAGCACATACTGCACGTCG ((((((((.(.((((((((+)))))))).).))))))))”, the melting temperature (Tm) was 56.9 °C.

With “CGACGTGCACGATGTGCTG+CAGCACATGTTGCACGTCG (((((((((..((((((((+))))))))..)))))))))”, the Tm came out at 49.9 °C.

As to “CGACGTGCGGTATGTGCTG+CAGCACATGTCGCACGTCG (((((((((..((((((((+))))))))..)))))))))”, the Tm worked out at 57.1 °C.

Source of the values: the array DNA melting data of Ke et al..
